From article PMC5148612, “Mechanism of cargo-directed Atg8 conjugation during selective autophagy” (eLife, 2016) come the findings set out here.

What all share (settings): both partners purified
The target of one test is T1, Atg5 (S. cerevisiae, UniProt Q12380 1-294).
T1 construct: Atg5, S. cerevisiae; in the co-purification with Atg16 (1–46) the GST was still on the protein while it was held on glutathione beads; also called GST-Atg5; source: E. coli Rosetta pLysS, on glutathione beads, cleaved off with thrombin; not shown: GST, N-terminal, cleaved
T1 sequence (looked up): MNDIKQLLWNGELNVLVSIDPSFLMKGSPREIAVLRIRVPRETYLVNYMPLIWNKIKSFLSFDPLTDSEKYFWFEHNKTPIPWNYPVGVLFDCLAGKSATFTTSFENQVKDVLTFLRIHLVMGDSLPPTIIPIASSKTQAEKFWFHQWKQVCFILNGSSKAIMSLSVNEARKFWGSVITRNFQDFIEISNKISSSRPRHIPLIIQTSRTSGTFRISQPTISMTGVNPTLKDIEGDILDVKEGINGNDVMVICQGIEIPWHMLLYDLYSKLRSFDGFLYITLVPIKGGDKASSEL
Kind of test: SEC; separately purified proteins mixed in a molar ratio 1:1 for 30 min at 4°C or on ice; the resulting complex purified on Superdex S200 16/60.

The next test deals with T2, GST-Atg19 (S. cerevisiae, UniProt P35193 1-415).
T2 construct: Atg19, S. cerevisiae cargo receptor; also called full length GST-Atg19; Atg19 full length; source: E. coli Rosetta pLysS, purified; not shown: GST, N-terminal, kept
T2 sequence (looked up): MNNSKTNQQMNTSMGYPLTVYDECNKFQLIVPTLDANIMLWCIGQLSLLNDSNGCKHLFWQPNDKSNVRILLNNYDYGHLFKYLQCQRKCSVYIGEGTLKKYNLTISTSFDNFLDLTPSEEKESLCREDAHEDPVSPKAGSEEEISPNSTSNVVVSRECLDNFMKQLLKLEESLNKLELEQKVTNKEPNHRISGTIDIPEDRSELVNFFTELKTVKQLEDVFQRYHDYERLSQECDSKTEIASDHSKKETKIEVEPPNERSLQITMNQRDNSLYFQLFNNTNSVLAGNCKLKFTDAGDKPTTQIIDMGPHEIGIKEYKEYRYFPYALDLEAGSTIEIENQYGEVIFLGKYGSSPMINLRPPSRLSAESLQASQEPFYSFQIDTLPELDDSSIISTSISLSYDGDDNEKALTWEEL
Kind of test: pull-down; GST-fused bait 20 µM and GST-free prey 5 µM with glutathione Sepharose 4B, 1 hr at 4°C; washed with 25 mM HEPES pH 7.5, 150 mM NaCl, 1 mM DTT; anti-Atg5 Western blot (Figure 2E, Figure 3—figure supplement 1, Figure 4C). For orientation: In western blotting, separated proteins are transferred to a membrane and probed.

A further test concerns the target T3, Atg19 (S. cerevisiae, UniProt P35193 1-415).
T3 construct: Atg19, S. cerevisiae; printed without a tag; also called Atg19 wild type
T3 sequence (looked up): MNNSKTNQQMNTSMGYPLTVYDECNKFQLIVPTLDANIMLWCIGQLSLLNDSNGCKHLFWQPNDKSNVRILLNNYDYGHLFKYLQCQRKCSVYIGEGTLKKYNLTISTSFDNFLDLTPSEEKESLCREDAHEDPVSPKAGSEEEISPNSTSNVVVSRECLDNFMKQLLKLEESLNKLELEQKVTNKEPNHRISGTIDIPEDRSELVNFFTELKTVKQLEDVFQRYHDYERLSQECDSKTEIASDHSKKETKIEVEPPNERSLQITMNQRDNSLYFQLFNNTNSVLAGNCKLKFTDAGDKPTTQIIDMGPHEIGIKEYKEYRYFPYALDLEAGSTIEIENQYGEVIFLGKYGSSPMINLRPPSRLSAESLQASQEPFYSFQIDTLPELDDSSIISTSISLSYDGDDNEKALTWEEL
Kind of test: SEC; Atg19 and Atg5-Atg16 (1–46) premixed at 55 µM, concentrated to 580 µM, Superose 6 PC 3.2/30, 25 mM HEPES pH 7.5, 150 mM NaCl, 1 mM DTT; fractions on Coomassie gels. In general terms: SEC sorts molecules by how far they enter the pores of the column.

B1: Atg16-meGFP (natural protein, S. cerevisiae, UniProt Q03818 1-150, looked up)
chain: MGNFIITERKKAKEERSNPQTDSMDDLLIRRLTDRNDKEAHLNELFQDNSGAIGGNIVSHDDALLNTLAILQKELKSKEQEIRRLKEVIALKNKNTERLNDELISGTIENNVLQQKLSDLKKEHSQLVARWLKKTEKETEAMNSEIDGTK
notes: Atg16, S. cerevisiae; source: E. coli Rosetta pLysS, purified; not shown: meGFP, C-terminal, kept
Regarding B1, the binding result with Atg5 is recorded as “binds”.

B2: Atg5(K137E)-Atg16 (1–46) (complex, S. cerevisiae)
chain 1: MNDIKQLLWNGELNVLVSIDPSFLMKGSPREIAVLRIRVPRETYLVNYMPLIWNKIKSFLSFDPLTDSEKYFWFEHNKTPIPWNYPVGVLFDCLAGKSATFTTSFENQVKDVLTFLRIHLVMGDSLPPTIIPIASSETQAEKFWFHQWKQVCFILNGSSKAIMSLSVNEARKFWGSVITRNFQDFIEISNKISSSRPRHIPLIIQTSRTSGTFRISQPTISMTGVNPTLKDIEGDILDVKEGINGNDVMVICQGIEIPWHMLLYDLYSKLRSFDGFLYITLVPIKGGDKASSEL
chain 2: MGNFIITERKKAKEERSNPQTDSMDDLLIRRLTDRNDKEAHLNELF
notes: Atg5, S. cerevisiae; Atg16, S. cerevisiae, first 46 amino acids; source: E. coli, co-expressed and purified in complex
As for B2, the binding result with GST-Atg19 is “binds”.

B3: Atg5-Atg16 (1–46) for analytical size exclusion chromatography (complex, S. cerevisiae)
chain 1: MNDIKQLLWNGELNVLVSIDPSFLMKGSPREIAVLRIRVPRETYLVNYMPLIWNKIKSFLSFDPLTDSEKYFWFEHNKTPIPWNYPVGVLFDCLAGKSATFTTSFENQVKDVLTFLRIHLVMGDSLPPTIIPIASSKTQAEKFWFHQWKQVCFILNGSSKAIMSLSVNEARKFWGSVITRNFQDFIEISNKISSSRPRHIPLIIQTSRTSGTFRISQPTISMTGVNPTLKDIEGDILDVKEGINGNDVMVICQGIEIPWHMLLYDLYSKLRSFDGFLYITLVPIKGGDKASSEL
chain 2: MGNFIITERKKAKEERSNPQTDSMDDLLIRRLTDRNDKEAHLNELF
notes: Atg5, S. cerevisiae; Atg16, S. cerevisiae, first 46 amino acids; source: E. coli Rosetta pLySS, co-expressed, purified (glutathione beads, thrombin, Superdex 200); not shown: GST, N-terminal, cleaved
In the case of B3, in the test with Atg19, the binding result was “binds”.

B4: Atg5(R208E)-Atg16 (1–46) (complex, S. cerevisiae)
chain 1: MNDIKQLLWNGELNVLVSIDPSFLMKGSPREIAVLRIRVPRETYLVNYMPLIWNKIKSFLSFDPLTDSEKYFWFEHNKTPIPWNYPVGVLFDCLAGKSATFTTSFENQVKDVLTFLRIHLVMGDSLPPTIIPIASSKTQAEKFWFHQWKQVCFILNGSSKAIMSLSVNEARKFWGSVITRNFQDFIEISNKISSSRPRHIPLIIQTSETSGTFRISQPTISMTGVNPTLKDIEGDILDVKEGINGNDVMVICQGIEIPWHMLLYDLYSKLRSFDGFLYITLVPIKGGDKASSEL
chain 2: MGNFIITERKKAKEERSNPQTDSMDDLLIRRLTDRNDKEAHLNELF
notes: as for B2
As to B4, the binding result in the test with GST-Atg19 was “binds”.
